From paper doi:10.1101/2020.07.09.196626 come the findings set out here.

In general, stoichiometry N refers to a count of units in the complex or per binding partner.

In test [1] the target is V5 epitope-tagged soluble ZIKV E, covalently stabilised dimer carrying A264C (sE-cvD) (Zika virus (strain ArD158095)). In words: non-reducing SDS-PAGE.
In test [2] the target is ZIKV full-length E protein carrying A264C (covalent dimer), in virus-like particles (VLP-cvD) (Zika virus (strain PE243)). In words: non-reducing SDS-PAGE with western blot. (Immunoblotting shows a protein as a band on a membrane.)

On to “V5 epitope-tagged soluble ZIKV E, covalently stabilised dimer carrying A264C (sE-cvD) (domain or fragment)”, for which the stoichiometry N in test [1] is 2.
In turn, “ZIKV full-length E protein carrying A264C (covalent dimer), in virus-like particles (VLP-cvD) (natural protein)” registered a stoichiometry N in test [2] of 2.
